US20240402174A1 (Takeda / Millennium, published 2024)

How the values were obtained:
Test in all cases: multiplex microsphere immunoassay
GI.5 VLP = target: T1, GI.5 VLP (norovirus …)
T1 construct: also called GI.5 Siklos
T1 chain: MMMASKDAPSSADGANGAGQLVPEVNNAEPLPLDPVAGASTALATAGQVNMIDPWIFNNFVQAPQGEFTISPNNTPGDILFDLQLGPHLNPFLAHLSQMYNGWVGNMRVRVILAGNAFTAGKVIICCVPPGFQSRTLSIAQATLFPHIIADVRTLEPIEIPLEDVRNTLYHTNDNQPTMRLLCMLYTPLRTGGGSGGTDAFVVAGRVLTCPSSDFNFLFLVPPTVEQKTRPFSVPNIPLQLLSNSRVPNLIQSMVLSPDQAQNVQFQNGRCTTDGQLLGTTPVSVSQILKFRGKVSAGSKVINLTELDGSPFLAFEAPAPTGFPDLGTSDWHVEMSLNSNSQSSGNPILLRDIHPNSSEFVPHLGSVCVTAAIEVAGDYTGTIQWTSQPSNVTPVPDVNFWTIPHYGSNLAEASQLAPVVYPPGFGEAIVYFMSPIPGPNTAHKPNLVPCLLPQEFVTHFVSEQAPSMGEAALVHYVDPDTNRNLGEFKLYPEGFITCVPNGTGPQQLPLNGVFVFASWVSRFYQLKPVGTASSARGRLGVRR

GI.4 VLP = target: T2, GI.4 VLP (norovirus Hu/GI.4/1643/2008/US)
T2 construct: also called GI.4 US
T2 chain: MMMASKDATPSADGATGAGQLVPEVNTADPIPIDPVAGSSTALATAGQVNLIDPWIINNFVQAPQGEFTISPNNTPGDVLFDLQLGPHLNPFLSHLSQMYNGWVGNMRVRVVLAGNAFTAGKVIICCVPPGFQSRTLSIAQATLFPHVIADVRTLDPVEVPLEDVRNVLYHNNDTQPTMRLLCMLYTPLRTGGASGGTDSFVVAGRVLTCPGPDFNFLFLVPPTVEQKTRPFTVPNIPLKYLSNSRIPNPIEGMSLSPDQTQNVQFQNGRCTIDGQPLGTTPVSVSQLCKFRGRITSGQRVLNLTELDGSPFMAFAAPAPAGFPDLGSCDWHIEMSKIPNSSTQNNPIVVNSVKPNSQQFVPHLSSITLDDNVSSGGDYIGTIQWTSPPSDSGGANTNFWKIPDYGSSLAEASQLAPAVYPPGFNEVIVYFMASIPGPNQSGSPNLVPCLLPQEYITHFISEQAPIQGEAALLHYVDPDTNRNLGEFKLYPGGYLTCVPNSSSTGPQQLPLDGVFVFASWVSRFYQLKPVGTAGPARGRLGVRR

GI.7 VLP = target: T3, GI.7 VLP (norovirus Hu/GI.7/Providence191/2010/USA)
T3 construct: also called GI.7 Providence
T3 chain: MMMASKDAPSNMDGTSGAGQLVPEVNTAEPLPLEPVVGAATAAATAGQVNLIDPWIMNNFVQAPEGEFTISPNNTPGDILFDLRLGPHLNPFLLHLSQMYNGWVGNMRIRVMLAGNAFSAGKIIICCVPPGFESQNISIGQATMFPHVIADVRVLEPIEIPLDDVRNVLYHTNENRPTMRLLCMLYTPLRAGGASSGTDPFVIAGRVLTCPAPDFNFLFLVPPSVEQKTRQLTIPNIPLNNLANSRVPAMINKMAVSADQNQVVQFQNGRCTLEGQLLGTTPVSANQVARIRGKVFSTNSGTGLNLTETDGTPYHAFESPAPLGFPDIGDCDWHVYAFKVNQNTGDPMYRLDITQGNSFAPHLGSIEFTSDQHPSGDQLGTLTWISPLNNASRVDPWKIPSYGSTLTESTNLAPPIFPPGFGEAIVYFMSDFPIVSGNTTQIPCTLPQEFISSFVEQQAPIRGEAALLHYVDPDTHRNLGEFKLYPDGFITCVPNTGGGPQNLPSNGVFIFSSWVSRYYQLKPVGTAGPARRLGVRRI

GI.3 VLP = target: T4, GI.3 VLP (norovirus Hu/GI.3/JKPG_883/SWE/2007)
T4 construct: also called GI.3 Sweden
T4 chain: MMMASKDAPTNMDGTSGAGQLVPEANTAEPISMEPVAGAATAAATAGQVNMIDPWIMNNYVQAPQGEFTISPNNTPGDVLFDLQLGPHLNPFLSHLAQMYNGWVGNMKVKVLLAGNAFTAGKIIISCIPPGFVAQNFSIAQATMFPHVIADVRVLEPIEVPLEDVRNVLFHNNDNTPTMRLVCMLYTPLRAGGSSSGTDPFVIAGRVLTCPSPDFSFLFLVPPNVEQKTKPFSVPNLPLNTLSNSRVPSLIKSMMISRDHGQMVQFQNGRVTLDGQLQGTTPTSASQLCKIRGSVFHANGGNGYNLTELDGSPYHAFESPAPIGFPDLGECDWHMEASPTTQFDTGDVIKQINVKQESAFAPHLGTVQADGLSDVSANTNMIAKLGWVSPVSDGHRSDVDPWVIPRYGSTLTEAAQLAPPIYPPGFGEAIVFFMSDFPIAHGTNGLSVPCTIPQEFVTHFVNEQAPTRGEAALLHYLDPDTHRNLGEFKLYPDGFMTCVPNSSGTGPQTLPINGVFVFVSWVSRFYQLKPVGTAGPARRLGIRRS

GI.2 VLP = target: T5, GI.2 VLP (norovirus Hu/GI.2/Jingzhou/2013401/CHN, UniProt Q04542 1-546)
T5 construct: also called GI.2 Jingzhou
T5 chain: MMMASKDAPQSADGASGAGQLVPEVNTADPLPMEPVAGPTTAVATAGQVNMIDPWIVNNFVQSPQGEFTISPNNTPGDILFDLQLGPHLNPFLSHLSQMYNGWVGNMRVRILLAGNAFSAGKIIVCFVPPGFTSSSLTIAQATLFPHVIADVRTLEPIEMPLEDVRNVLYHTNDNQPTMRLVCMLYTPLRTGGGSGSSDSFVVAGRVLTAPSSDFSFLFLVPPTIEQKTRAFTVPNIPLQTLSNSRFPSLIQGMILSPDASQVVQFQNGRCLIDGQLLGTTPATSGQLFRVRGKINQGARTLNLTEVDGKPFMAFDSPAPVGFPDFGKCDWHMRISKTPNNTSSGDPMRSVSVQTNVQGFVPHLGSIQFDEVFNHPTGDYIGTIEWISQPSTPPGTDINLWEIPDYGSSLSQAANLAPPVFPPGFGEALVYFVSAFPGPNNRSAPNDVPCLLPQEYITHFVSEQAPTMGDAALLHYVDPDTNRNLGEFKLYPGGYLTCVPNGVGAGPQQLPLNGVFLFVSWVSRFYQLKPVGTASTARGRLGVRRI

GI.6 VLP = target: T6, GI.6 VLP (norovirus Hu/GI.6/TCH-099/USA/2003)
T6 construct: also called GI.6 USA
T6 chain: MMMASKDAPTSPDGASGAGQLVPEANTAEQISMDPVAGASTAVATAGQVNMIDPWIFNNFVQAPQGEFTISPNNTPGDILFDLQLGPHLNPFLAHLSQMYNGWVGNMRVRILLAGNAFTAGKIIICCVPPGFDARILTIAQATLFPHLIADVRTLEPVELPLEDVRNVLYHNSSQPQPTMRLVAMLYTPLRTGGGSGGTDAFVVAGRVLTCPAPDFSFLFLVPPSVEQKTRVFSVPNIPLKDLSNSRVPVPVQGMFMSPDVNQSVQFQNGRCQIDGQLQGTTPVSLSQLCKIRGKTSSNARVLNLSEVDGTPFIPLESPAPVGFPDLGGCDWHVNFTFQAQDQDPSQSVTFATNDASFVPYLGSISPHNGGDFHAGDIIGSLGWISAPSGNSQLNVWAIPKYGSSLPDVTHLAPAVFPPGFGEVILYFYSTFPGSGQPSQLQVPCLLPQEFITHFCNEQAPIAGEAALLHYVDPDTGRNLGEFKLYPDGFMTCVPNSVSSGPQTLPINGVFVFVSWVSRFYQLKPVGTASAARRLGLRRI

B1: human mAb 1227 (antibody, V domains shown)
VH: QVQLVQSGGGMVQPGGSLSLSCAASGFTLSNYAMTWVRQAPGKGLEWVSSIGGSGGTTYYADSVKGRFTISRDSSMNTLYLQMSNLRAGDTAVYYCAKDKTRTLRLGYSGMDVWGQGTTVTVSS
VL: DIRLTQSPSSLSASVGDRVTITCRASQSISSYLNWYQQKPGKAPDLLIYGASSLQSGVPSRFSGSGSGTDFTLTISSLQPEDFGNYYCQQSFSTPRTFGQGTKVEL
notes: also called A1227
Work on B1 yielded an EC50 (GI.5 VLP) of 1 ng/mL, an EC50 (GI.4 VLP) of 2 ng/mL and an EC50 (GI.7 VLP) of 21 ng/mL. For the same binder, the EC50 (GI.3 VLP) was 2 ng/mL, the EC50 (GI.2 VLP) was 2 ng/mL and the EC50 (GI.6 VLP) was 2 ng/mL.
